Key:
C81 cells = test: HRG-induced growth of C81 transfectants; assay type: cell-based, human; details: ectopic expression of EBP1, androgen-free media
Protocol: FIG. 6A-C. EBP1 overexpression inhibits the response to HRG A. EBP1 and vector control transfected cells were plated in complete media at 5×10^3 cells/well for one day. The next day, cells were switched to steroid reduced-media and HRG added at the indicated concentrations. Total cell numbers were determined seven days later by MTT assay. Each point represents mean±S.E. of 6 wells. Data is representative of three experiments. B. AKT activation in response to HRG C81-EBP1 or vector control cells were serum starved overnight and then treated with HRG (20 ng/ml) for the indicated times (mm). Cell lysates were immunoblotted with antibody to phospho-AKT or total AKT as indicated. C. […]
Western Blot Analysis. […] For soft agar growth assays, increasing concentrations of cells (as indicated) were plated in 35 mm Petri dishes in 0.3% agar in complete media and colonies were counted after 10 days of incubation (21). […] Relative cell growth was determined using a Promega Proliferation Reagent (Promega, Madison Wis.) as per manufacturer's instructions with absorbance being read at […] using a Dynex plate reader. […] Luciferase activity was determined using the Promega Dual luciferase assay kit as described by the manufacturer. […] Tumors were measured with calipers. Tumor volumes were calculated by the formula width^2×length/2 […]. Mean tumor volume±S.D. were calculated and plotted against time. […]

MCF-7 cells = test: Western blot of ErbB2 and ErbB3 in MCF-7 EBP1 transfectants; assay type: cell-based, human; details: MCF-7-EBP1 transfectants vs vector controls
Protocol: FIG. 10A-C. Effect of ectopic expression of EBP1 on ErbB3 or ErbB2 protein levels. (A and B) Lysates of logarithmically growing MCF-7 vector control cells (CMV) or EBP1 transfected cells (Ebp1) or (C) AU565 cells were blotted with antibodies for ErbB3 or ErbB2 and actin as indicated. Data are representative of three experiments.
2.5. Western blot analysis. Total cell extracts were prepared by direct lysis of cells with lysis buffer [50 mM Tris-HCl (pH 7.4), 1 mM EDTA, 250 mM NaCl, 1% Triton X-100, 0.5 mM DTT, and 1× Complete™ protease inhibitor]. Protein concentrations were measured using a detergent compatible kit (Bio-Rad). Proteins (30 lg per well) were resolved by SDS-PAGE, transferred to PVDF membranes, and immunoblotted as described. […] Images were quantified using IMAGE-J software (NIH). […] Relative cell numbers were determined 4 days later using a Promega Proliferation Reagent as per manufacturer's instructions with absorbance being read at 490 nm using a Dynex plate reader. […] Data were analyzed using a two-tailed Students t-test and a p <0.05 was deemed statistically significant. […]

B1: EBP1: ErbB3 binding protein (SEQ ID NO: 2), AR corepressor, here ectopically expressed in cancer cells by stable transfection of an expression plasmid (protein, listed as Homo sapiens)
chain: MSGEDEQQEQTIAEDLVVTKYKMGGDIANRVLRSLVEASSSGVSVLSLCEKGDAMIMEETGKIFKKEKEMKKGIAFPTSISVNNCVCHFSPLKSDQDYILKEGDLVKIDLGVHVDGFIANVAHTFVVDVAQGTQVTGRKADVIKAAHLCAEAALRLVKPGNQNTQVTEAWNKVAHSFNCTPIEGMLSHQLKQHVIDGEKTIIQNPTDQQKKDHEKAEFEVHEVYAVDVLVSSGEGKAKDAGQRTTIYKRDPSKQYGLKMKTSRAFFSEVERRFDAMPFTLRAFEDEKKARMGVVECAKHELLQPFNVLYEKEGEFVAQFKFTVLLMPNGPMRITSGPFEPDLYKSEMEVQDAELKALLQSSASRKTQKKKKKKASKTAENATSGETLEENEAGD
modifications: FLAG tag
- ability of C81 cells to grow in response to HRG (C81 cells): completely abrogated
- ErbB2 protein level (MCF-7 cells): significantly decreased
- ErbB3 protein level (MCF-7 cells): no change
